Blank lines part the entries; values can stand above or below the binder they belong to.
Key:
Assay in all cases: two-hybrid library CCNG1;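 also: natural log of median RNA to DNA barcode read ratio; higher means stronger binding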
P8SHb = molecular target: T1, P8SHb
T1 chain: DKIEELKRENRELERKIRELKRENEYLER

P9SHb = molecular target: T2, P9SHb
T2 chain: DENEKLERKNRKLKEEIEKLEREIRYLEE

4H619-bH = molecular target: T3, 4H619-bH
T3 chain: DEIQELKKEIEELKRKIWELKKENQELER

4H906-bH = molecular target: T4, 4H906-bH
T4 chain: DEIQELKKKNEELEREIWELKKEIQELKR

4H850-bH = molecular target: T5, 4H850-bH
T5 chain: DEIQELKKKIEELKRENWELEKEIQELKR

4H3974-bH = molecular target: T6, 4H3974-bH
T6 chain: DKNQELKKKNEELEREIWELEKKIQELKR

4H570-bH = molecular target: T7, 4H570-bH
T7 chain: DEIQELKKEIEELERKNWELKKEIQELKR

4H3817-bH = molecular target: T8, 4H3817-bH
T8 chain: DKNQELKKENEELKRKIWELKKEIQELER

4H3638-bH = molecular target: T9, 4H3638-bH
T9 chain: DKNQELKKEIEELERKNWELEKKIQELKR

4H584-bH = molecular target: T10, 4H584-bH
T10 chain: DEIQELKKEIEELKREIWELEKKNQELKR

4H3041-bN = molecular target: T11, 4H3041-bN
T11 chain: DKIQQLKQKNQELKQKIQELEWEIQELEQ

4H349-bN = molecular target: T12, 4H349-bN
T12 chain: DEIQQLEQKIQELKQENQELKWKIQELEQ

4H3381-bN = molecular target: T13, 4H3381-bN
T13 chain: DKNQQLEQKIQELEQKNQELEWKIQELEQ

4H932-bN = molecular target: T14, 4H932-bN
T14 chain: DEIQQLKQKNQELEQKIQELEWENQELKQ

4H56-bN = molecular target: T15, 4H56-bN
T15 chain: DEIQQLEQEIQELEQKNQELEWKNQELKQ

4H949-bN = molecular target: T16, 4H949-bN
T16 chain: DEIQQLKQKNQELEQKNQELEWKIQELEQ

4H730-bN = molecular target: T17, 4H730-bN
T17 chain: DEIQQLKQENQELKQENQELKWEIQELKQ

4H2931-bN = molecular target: T18, 4H2931-bN
T18 chain: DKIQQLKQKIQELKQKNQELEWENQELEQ

4H3364-bN = molecular target: T19, 4H3364-bN
T19 chain: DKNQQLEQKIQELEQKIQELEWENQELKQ

4H796-bN = molecular target: T20, 4H796-bN
T20 chain: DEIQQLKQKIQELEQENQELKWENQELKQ

4H3297-bN = molecular target: T21, 4H3297-bN
T21 chain: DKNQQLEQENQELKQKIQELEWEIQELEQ

interaction score (P8SHb): -0.644 | interaction score (P9SHb): 0.191
B1: P8SHb (peptide)
chain: DKIEELKRENRELERKIRELKRENEYLER

interaction score (4H619-bH): -1.47 | interaction score (4H906-bH): -0.762 | interaction score (4H850-bH): 1.04 | interaction score (4H3974-bH): -0.916 | interaction score (4H570-bH): -0.4 | interaction score (4H3817-bH): -0.0824 | interaction score (4H3638-bH): -1.34 | interaction score (4H584-bH): -0.722
B2: 4H3638-bH (peptide)
chain: DKNQELKKEIEELERKNWELEKKIQELKR

interaction score (4H3041-bN): -0.593 | interaction score (4H349-bN): -1.08 | interaction score (4H3381-bN): -1.1 | interaction score (4H932-bN): -0.619 | interaction score (4H56-bN): 0.0366 | interaction score (4H949-bN): -0.75 | interaction score (4H730-bN): -1.27 | interaction score (4H2931-bN): -0.656 | interaction score (4H3364-bN): -0.721 | interaction score (4H796-bN): -1.66 | interaction score (4H3297-bN): -0.835
B3: 4H2931-bN (peptide)
chain: DKIQQLKQKIQELKQKNQELEWENQELEQ

Source: PMC10397247
